Source: PMC3292765 (2012)

Molecular target: Rac1 (Homo sapiens, UniProt P63000)
Assay: microscale thermophoresis

B1: p67phox 1-212 (protein)
chain: MSLVEAISLWNEGVLAADKKDWKGALDAFSAVQDPHSRICFNIGCMYTILKNMTEAEKAFTRSINRDKHLAVAYFQRGMLYYQTEKYDLAIKDLKEALIQLRGNQLIDYKILGLQFKLFACEVLYNIAFMYAKKEEWKKAEEQLALATSMKSEPRHSKIDKAMECVWKQKLYEPVVIPVGKLFRPNERQVAQLAKKDYLGKATVVASVVDQD
B1 showed a Kd of about 40 nM.
